Data reported in doi:10.1101/2024.12.22.629684 (bioRxiv, 2024).

Target: T1, Yku80 (S. cerevisiae, UniProt Q04437 1-629)
T1 sequence (looked up): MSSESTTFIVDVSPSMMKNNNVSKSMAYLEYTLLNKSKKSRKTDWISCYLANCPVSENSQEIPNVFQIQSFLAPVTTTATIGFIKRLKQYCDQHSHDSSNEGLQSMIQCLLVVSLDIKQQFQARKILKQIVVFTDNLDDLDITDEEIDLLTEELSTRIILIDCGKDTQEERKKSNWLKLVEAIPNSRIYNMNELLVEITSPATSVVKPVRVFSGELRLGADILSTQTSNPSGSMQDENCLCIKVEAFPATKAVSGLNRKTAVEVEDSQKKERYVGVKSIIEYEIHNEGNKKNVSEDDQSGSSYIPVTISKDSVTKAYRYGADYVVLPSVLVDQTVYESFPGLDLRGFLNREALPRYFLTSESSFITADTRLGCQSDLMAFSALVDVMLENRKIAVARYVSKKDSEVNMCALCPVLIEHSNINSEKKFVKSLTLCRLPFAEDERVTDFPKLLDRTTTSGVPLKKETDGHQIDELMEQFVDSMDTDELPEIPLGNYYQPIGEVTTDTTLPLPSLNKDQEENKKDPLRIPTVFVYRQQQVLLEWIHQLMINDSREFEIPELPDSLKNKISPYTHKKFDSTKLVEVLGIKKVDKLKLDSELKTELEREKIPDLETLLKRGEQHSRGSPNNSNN
Test: cryo-EM structure

B1: Yku70 (natural protein, S. cerevisiae, UniProt P32807 1-602, looked up)
chain: MRSVTNAFGNSGELNDQVDETGYRKFDIHEGILFCIELSETMFKESSDLEYKSPLLEILESLDELMSQLVITRPGTAIGCYFYYCNREDAKEGIYELFPLRDINATFMKKLNDLLEDLSSGRISLYDYFMFQQTGSEKQVRLSVLFTFMLDTFLEEIPGQKQLSNKRVFLFTDIDKPQEAQDIDERARLRRLTIDLFDNKVNFATFFIGYADKPFDNEFYSDILQLGSHTNENTGLDSEFDGPSTKPIDAKYIKSRILRKKEVKRIMFQCPLILDEKTNFIVGVKGYTMYTHEKAGVRYKLVYEHEDIRQEAYSKRKFLNPITGEDVTGKTVKVYPYGDLDINLSDSQDQIVMEAYTQKDAFLKIIGFRSSSKSIHYFNNIDKSSFIVPDEAKYEGSIRTLASLLKILRKKDKIAILWGKLKSNSHPSLYTLSPSSVKDYNEGFYLYRVPFLDEIRKFPSLLSYDDGSEHKLDYDNMKKVTQSIMGYFNLRDGYNPSDFKNPLLQKHYKVLHDYLLQIETTFDENETPNTKKDRMMREDDSLRKLYYIRNKILESEKSEDPIIQRLNKYVKIWNMFYKKFNDDNISIKEEKKPFDKKPKFNI
binding result: binds
